# Tests used:
# Assay in all cases: MST
# [1] = biological target: Sortilin extracellular domain (ECD) (M1-S756) C-terminally fused to 6His (UniProt Q99523)
# [2] = biological target: Enhanced GFP with C-terminal (GGGGS)3GG linker and RQLL
# [3] = biological target: T1, Sortilin extracellular domain (ECD) (M1-S756) C-terminally fused to 6His (UniProt Q99523 78-756)
# T1 sequence: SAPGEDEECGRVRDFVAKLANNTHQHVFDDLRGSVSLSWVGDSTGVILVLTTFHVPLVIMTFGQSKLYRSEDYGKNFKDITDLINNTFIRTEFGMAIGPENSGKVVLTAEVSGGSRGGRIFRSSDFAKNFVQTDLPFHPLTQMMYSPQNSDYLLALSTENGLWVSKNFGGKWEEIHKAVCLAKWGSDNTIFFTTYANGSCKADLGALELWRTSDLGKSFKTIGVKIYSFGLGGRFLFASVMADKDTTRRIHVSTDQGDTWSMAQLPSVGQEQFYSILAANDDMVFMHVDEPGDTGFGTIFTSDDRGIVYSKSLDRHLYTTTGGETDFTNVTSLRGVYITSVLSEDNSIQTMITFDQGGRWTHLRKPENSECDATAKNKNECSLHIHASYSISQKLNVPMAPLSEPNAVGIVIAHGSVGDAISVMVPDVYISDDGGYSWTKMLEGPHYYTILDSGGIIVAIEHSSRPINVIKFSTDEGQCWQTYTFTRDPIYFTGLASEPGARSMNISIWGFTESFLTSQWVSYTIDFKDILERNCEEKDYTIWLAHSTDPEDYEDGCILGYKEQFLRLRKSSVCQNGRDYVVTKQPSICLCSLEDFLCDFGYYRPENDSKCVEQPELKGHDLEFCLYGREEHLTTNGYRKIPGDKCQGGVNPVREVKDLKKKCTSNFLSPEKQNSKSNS
Molecule,Kd [1] [nM],further results
TNFa (V76-L233) without RQLL (natural protein),> 200000,
TNFa (V76-L233) with C-terminal (GGGGS)3GG linker and RQLL,86.5,
Sortilin extracellular domain (ECD) (M1-S756) C-terminally fused to 6His (from UniProt Q99523 78-756) (domain or fragment),,Kd [2]: 74 nM
progranulin N-terminally tagged with the HiBiT peptide (ligand) TRCPDGQFCPVACCLDPGGASYSCCRPLLDKWPTTLSRHLGGPCQVDAHCSAGHSCIFTVSGTSSCCPFPEAVACGDGHHCCPRGFHCSADGRSCFQRSGNNSVGAIQCPDSQFECPDFSTCCVMVDGSWGCCPMPQASCCEDRVHCCPHGAFCDLVHTRCITPTGTHPLAKKLPAQRTNRAVALSSSVMCPDARSRCPDGSTCCELPSGKYGCCPMPNATCCSDHLHCCPQDTVCDLIQSKCLSKENATTDLLTKLPAHTVGDVKCDMEVSCPDGYTCCRLQSGAWGCCPFTQAVCCEDHIHCCPAGFTCDTQKGTCEQGPHQVPWMEKAPAHLSLPDPQALKRDVPCDNVSSCPSSDTCCQLTSGEWGCCPIPEAVCCSDHQHCCPQGYTCVAEGQCQRGSEIVAGLEKMPARRASLSHPRDIGCDQHTSCPVGQTCCPSLGGSWACCQLPHAVCCEDRQHCCPAGYTCNVKARSCEKEVVSAQPATFLARSPHVGVKDVECGEGHFCHDNQTCCRDNRQGWACCPYRQGVCCADRRHCCPAGFRCAARGTKCLRREAPRWDAPLRDPALRQLL,,Kd [3]: 3.5 ± 1.6 nM

# Reference: article doi:10.1101/2025.03.03.641244 (bioRxiv, 2025)
